The record followed here is a protein production outcome set (Wang et al. 2014).

A short description of this data set: label from the status in PepcDB records.
Consider “MAAIPALDPEAEPSMDVILVGSSELSSSVSPGTGRDLIAYEVKANQRNIEDICICCGSLQVHTQHPLFEGGICAPCKDKFLDALFLYDDDGYQSYCSICCSGETLLICGNPDCTRCYCFECVDSLVGPGTSGKVHAMSNWVCYLCLPSSRSGLLQRRRKWRSQLKAFYDRESENPLEMFETVPVWRRQPVRVLSLFEDIKKELTSLGFLESGSDPGQLKHVVDVTDTVRKDVEEWGPFDLVYGATPPLGHTCDRPPSWYLFQFHRLLQYARPKPGSPRPFFWMFVDNLVLNKEDLDVASRFLEMEPVTIPDVHGGSLQNAVRVWSNIPAIRSSRHWALVSEEELSLLAQNKQSSKLAAKWPTKLVKNCFLPLREYFKYFSTELTSSL”, for which the protein production result is on record as “failed”.
The value for “MAAITTGVVLLRWQLLSAVLMFLASTLNIRFRKSDYIGLAVISSGLGVVSACWFATGLLGITMMDLAAIWHNIEAVMVETMSQTPPEWPMVLT” was “failed”.
The value for “MAAKLEKTTNSFEVITREWYAKFSPTWNESHGERIIRRFERDIFPWIGSKPISEIAAPELLATVRRIESRGAVETAHRALGNCGQVFRYAIATARATRDISADLRGALPPVKGEHLEHHHHHH” was “not failed”.
The value for “MAAKQGESDPERKETRQKVDDDRKHEIEAAIVRIMKSRKKMQHNVLVAEVTQQLKARFLPSPVVIKKRIEGLIEREYLARTPEDRKVYTYVA” was “not failed”; that for “MAAPEAEVLSSAAVPDLEWYEKSEETHASQIELLETSSTQEPLNASEAFCPRDCMVPVVFPGPVSQEGCCQFTCELLKHIMYQRQQLPLPYEQLKHFYRKPSPQAEEMLKKKPRATTEVSSRKCQQALAELESVLSHLEDFFARTLVPRVLILLGGNALSPKEFYELDLSLLAPYSVDQSLSTAACLRRLFRAIFMADAFSELQAPPLMGTVVMAQGHRNCGEDWFRPKLNYRVPSRGHKLTVTLSCGRPSIRTTAWEDYIWFQAPVTFKGFRE” was “not failed”; that for “MAAQVEIEDQESVTNLDNGEIINPISDNAPNFSGDATILLREATFEHNLIKNCFLSGMGSFATETTIVTVRKILTQRLITTKAKFAVFKLFTEAMKRKNNGYANIRYGWYSGSKEEIDRVITYGFSNREIKKVENDVGSHGVGIHLVHHRYSLAAALVGEGDEEGIKNILLCRVILGKPEQIVTGSKQSYPSSNQFDSGVDNLENPRKYVIWSCNMNSYILPTYIVSFKSHLLRGLIGRARSPCVSFSVLMSILSKSLDAARMNLILTSYDDFRKRKLRREQLVRKIREVVGDNLLFKILKNQRR” was “not failed”.
As to “MAARNAFYAQSGGVTAVINASACGVLETARQYPDRIGTVYAGRNGIVGALTEDLIDTGQESAEAIAALRHTPSGAFGSCRYKLKGLEENRAQYERLIEVFRAHDIGYFFYNGGGDSADTCLKVSQLSEKLGYPLQAVHIPKTVDNDLPITDCCPGFGSVAKYIAVSVREASFDVRSMAATSTCIFVLEVMGRHAGWIAAAGGLASDERHELALVILFPEQVFDPERFLRAVDEKVRSHGYCSVVVSEGIRGADGRFVAESGSRDVFGHARLGGVAPVIADLIKERLGYKYHWAVADYLQRAARHIASRTDVEQAYAVGKAGVEMALKGLSAVMPAIVRTSDSPYRWEITAASLAEVANVEKKMPLEFISADGFGITEACRRYLRPLIEGEDYPPYAGGLPDYVTLCNVAVPKKLAASFSV”, the protein production result was “failed”.
In the case of “MAASAAATAAASAATAASAASGSPGSGEGSAGGEKRPAASSAAAASAAASSPAGGGGEAQELLEHCGVCRERLRPERDPRLLPCLHSACSACLGPATPAAANNSGDGGSAGDGAMVDCPVCKQQCYSKDIVENYFMRDSGSKASSDSQDANQCCTSCEDNAPATSYCVECSEPLCETCVEAHQRVKYTKDHTVRSTGPAKTRDGERTVYCNVHKHEPLVLFCESCDTLTCRDCQLNAHKDHQYQFLEDAVRNQRKLLASLVKRLGDKHATLQKNTKEVRSSIRQVSDVQKRVQVDVKMAILQIMKELNKRGRVLVNDAQKVTEGQQERLERQHWTMTKIQKHQEHILRFASWALESDNNTALLLSKKLIYFQLHRALKMIVDPVEPHGEMKFQWDLNAWTKSAEAFGKIVAERPGTNSTGPGPMAPPRAPGPLSKQGSGSSQPMEVQEGYGFGSDDPYSSAEPHVSGMKRSRSGEGEVSGLLRKVPRVSLERLDLDLTSDSQPPVFKVFPGSTTEDYNLIVIERGAAAAAAGQAGTVPPGAPGAPPLPGMAIVKEEETEAAIGAPPAAPEGPETKPVLMPLTEGPGAEGPRLASPSGSTSSGLEVVAPEVTSAPVSGPGILDDSATICRVCQKPGDLVMCNQCEFCFHLDCHLPALQDVPGEEWSCSLCHVLPDLKEEDGSLSLDGADSTGVVAKLSPANQRKCERVLLALFCHEPCRPLHQLATDSTFSMEQPGGTLDLTLIRARLQEKLSPPYSSPQEFAQDVGRMFKQFNKLTEDKADVQSIIGLQRFFETRMNDAFGDTKFSAVLVEPPPLNLPSAGLSSQELSGPGDGP” it was “not failed”; in that of “MAASLSEGVPETEDRKRPQFGNRFLSDPARVFHHNAWDNVKWSEEQAAAAERKVQENSSQLVCPEKQADYEVNAHKYWDDFYKVHENGFFKDRHWLFTEFPELAPSHDHLVNLHLEKQKNEVSKPRSSEDGPGLAAEQHKRPCTSHGCETRVPPVEEPVTQKLTHLEICADDFPGSSATYRILEVGCGVGNTVFPILQTNNNPDLFVYCCDFSATAIELVKTNSEYDPSRCFAFVHDLCDEDQSYPMPKDSLDVIVLIFVLSAIVPDKMQKAISKLSRLLKPGGVMLLRDYGRYDMAQLRFKKGQCLSGNFYVRGDGTRVYFFTQDELDTLFTAAGLEKVQNVVDRRLQVNRGKQLTMYRVWIQCKYSKPLVPSASQHVPTPHTTXVLRIWGFC”, “failed”; in that of “MAATAREDGASGQERGQRGCEHYDRGCLLKAPCCDKLYTCRLCHDNNEDHQLDRFKVKEVQCINCEKIQHAQQTCEECSTLFGEYYCDICHLFDKDKKQYHCENCGICRIGPKEDFFHCLKCNLCLAMNLQGRHKCIENVSRQNCPICLEDIHTSRVVAHVLPCGHLLHRTCYEEMLKEGYRCPLCMHSALDMTRYWRQLDDEVAQTPMPSEYQNMTVDILCNDCNGRSTVQFHILGMKCKICESYNTAQAGGRRISLDQQ”, “failed”.
Consider “MAATASPQPLATEDADAENSSFYYYDYLDEVAFMLCRKDAVVSFGKVFLPVFYSLIFVLGLSGNLLLLMVLLRYVPRRRMVEIYLLNLAISNLLFLVTLPFWGISVAWHWVFGSFLCKMVSTLYTINFYSGIFFISCMSLDKYLEIVHAQPYHRLRTRAKNLLLATIVWAVSLAVSIPDMVFVQTHENPKGVWNYHADFGGHGTIWKLFLRFQQNLLGFLLPLLGMIFFYSRIGCVLVRLRPAGQGRALKIAAALVVAFFVLWFPYNLTLFLHTLLDLQVFGNCEVSQHLDYALQVTESIAFLHCCFSPILYAFSSHRFRQYLKAFLAAVLGWHLAPGTAQASLSSCSESSILTALEEMTGMNDLGERQSENYPNKEDVGNKSA”, for which the protein production result is reported as “failed”.
The value for “MAAVRKIHVTVKFPSKQFTVEVDRTETVSSLKDKIHIVENTPIKRMQLYYSGIELADDYRNLNEYGITEFSEIVVFLKSINRAKD” was “not failed”; that for “MAAWVCILGQMKPDPETKPDPMRQTAQPAPQRLLRHLPLIVIVLIAVIGAITLRDYLSFDTLAANRQALLAYREAHYAALAAIFVATYVLIVAFSLPGAAVASMTGGFLFGLAVGTVLNVVAATIGAVAIFLAARAGLGAMLTARLEASEGTVKRLKEGLRRNEIEVLFLLRLVPAVPFFAANLIPALVGVKLRNYVLTTALGIVPGAIVFTWIGVGLGGVFDRGESPDLSLFREPFVIGPILGLCLLAALPIAIKALRGKPEGE” was “failed”; that for “MACHELSALRIAIGELLEKEAHDLLHEREELAPVLGQRPELKRLAEAKTLPALEEALREALLHLEERAAQEPEEPYWRGLLLAVEAMEGRLKALRAEAEALYQDLDALHGRLHRLFPRRR” was “not failed”.
The value for “MADHNNTPPFDLTKLDHYIKYQPREEAEDFFVHVEVKVLGKGSSPLEISFSTSVYEFVWEDEDCYELVELYEFFTEDAGIDAFEAQFLVNDLILYVNKTTRPLDEDFTGVFKLMAEVTLKPVQLNHAGSQKTESQQP” was “failed”.
